Measurements published in patent US5741689A, “Methods to inhibit serine kinase activity and to alter intersubunit binding activity of phosphatidylinositol 3-kinase, and serine kinase active sequence of the same” (Ludwig Institute for Cancer Research, priority 1994, dated 1998).

Legend:
[1] = biological target: T1, PI3-kinase p85α/p110 complex (wild type p110, recombinant, expressed in Sf9 cells), protein-serine kinase activity (Bos taurus, UniProt P32871); experiment: in vitro protein-serine kinase assay (phosphorylation of p85α) on anti-p110 immunoprecipitates of p85α/p110; type: biochemical, bovine; settings: DTT alone, final concentration 300 mM; FIG. 17 B lane 2
T1 construct: made in house; host or cells: Sf9 insect cells (baculovirus co-infection)
T1 sequence (P32871 whole entry): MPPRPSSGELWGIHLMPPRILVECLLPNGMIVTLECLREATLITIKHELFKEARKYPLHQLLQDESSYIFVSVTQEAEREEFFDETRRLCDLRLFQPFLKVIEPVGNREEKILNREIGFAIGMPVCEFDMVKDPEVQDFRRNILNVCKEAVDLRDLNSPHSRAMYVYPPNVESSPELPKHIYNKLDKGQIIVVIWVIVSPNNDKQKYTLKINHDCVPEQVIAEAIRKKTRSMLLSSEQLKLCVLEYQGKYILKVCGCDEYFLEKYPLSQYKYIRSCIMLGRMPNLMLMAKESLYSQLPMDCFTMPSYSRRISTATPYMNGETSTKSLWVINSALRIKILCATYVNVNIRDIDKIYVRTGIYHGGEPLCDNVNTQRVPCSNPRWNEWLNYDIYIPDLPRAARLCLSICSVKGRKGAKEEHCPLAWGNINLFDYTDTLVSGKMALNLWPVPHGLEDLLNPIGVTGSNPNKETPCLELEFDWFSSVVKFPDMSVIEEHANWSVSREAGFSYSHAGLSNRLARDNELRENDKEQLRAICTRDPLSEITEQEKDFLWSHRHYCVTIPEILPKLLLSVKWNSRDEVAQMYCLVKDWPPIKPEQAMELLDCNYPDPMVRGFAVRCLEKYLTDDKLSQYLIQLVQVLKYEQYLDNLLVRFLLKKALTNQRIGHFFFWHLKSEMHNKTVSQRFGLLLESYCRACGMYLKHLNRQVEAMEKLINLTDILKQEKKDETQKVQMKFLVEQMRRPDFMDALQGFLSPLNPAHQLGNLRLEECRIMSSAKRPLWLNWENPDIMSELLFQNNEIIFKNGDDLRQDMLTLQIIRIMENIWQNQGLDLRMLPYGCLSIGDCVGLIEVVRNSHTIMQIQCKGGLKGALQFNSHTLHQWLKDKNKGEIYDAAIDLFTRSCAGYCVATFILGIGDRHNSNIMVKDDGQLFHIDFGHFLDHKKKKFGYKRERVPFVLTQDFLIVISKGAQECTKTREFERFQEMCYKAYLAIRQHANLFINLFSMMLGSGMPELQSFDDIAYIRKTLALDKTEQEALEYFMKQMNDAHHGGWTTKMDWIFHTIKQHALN
T1 sequence (P23727 whole entry partner): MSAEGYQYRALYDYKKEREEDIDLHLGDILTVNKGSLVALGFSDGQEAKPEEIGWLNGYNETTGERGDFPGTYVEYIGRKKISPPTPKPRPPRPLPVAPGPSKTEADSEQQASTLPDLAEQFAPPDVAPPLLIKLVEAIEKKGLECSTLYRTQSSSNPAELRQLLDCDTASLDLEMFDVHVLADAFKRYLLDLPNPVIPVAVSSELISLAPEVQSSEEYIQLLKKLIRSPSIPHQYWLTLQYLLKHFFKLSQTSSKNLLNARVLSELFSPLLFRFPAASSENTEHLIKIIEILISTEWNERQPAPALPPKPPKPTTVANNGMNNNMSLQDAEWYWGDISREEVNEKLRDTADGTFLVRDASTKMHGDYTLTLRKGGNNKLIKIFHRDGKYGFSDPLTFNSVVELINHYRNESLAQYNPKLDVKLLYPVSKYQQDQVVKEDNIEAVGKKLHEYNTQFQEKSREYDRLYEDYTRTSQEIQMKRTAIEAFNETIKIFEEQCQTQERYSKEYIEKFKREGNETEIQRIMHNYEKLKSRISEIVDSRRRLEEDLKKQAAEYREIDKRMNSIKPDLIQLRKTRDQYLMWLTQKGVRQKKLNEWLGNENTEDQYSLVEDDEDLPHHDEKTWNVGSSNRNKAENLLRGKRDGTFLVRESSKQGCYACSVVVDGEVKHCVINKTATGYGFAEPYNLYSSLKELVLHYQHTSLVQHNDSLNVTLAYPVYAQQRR
Experimental: Anti-p110 immunoprecipitates of p85α/p110 were used to study the kinetics of phosphorylation. The Km (ATP) for the phosphorylation of p85α was measured as approximately 4 μM. The stoichiometry of phosphorylation of p85α was then measured in the presence of excess ATP (50 μM). Approximately 0.9 mol of phosphate was incorporated into one mol of p85α protein.
A further experiment to determine in vitro kinase activity with treatment of Nbs2 and DTT was also conducted. Lysates of Sf9 cells that had been coinfected with p85α/p110 baculoviruses were also treated as follows: the lysates were immunoprecipitated with anti-p110 antibodies and treated as follows: untreated (see FIG. 17, B, lane 1); 300 mM DTT (lane 2); 0.3 mM Nbs2 (lane 3); pretreated with 0.3 mM Nbs2 and then incubated with 3 mM DTT, 30 mM DTT, 300 mM DTT (lanes 4, 5, 6 respectively). Samples were then subjected to in vitro kinase assays and analysis by SDS-PAGE was conducted. Phosphorylated proteins were visualized by autoradiography.
The p110 protein was immunoprecipitated from insect cells, and equal amounts of each GST fusion protein or the GST protein alone, were mixed with p110 and the proteins were allowed to phosphorylate in vitro. […] Phosphorylated proteins were analyzed by SDS-PAGE and autoradiography.

[2] = biological target: T2, PI3-kinase p85α/p110 complex (wild type, recombinant, expressed in Sf9 cells) (Bos taurus, UniProt P32871); experiment: in vitro PI3-kinase assay on anti-p110 immunoprecipitates, p85α/p110 complex; type: biochemical, bovine
T2 construct: made in house; host or cells: Sf9 insect cells (baculovirus co-infection)
T2 sequence (P32871 whole entry): as the sequence (P32871 whole entry) above
T2 sequence (P23727 whole entry partner): as the sequence (P23727 whole entry partner) above
Experimental: (§1) Insect cells were infected with p85α/p110 complex, (see FIG. 17, A, lanes 1-6) or p110 alone, (see FIG. 17, B, lanes 7-12). The immunoprecipitates were washed twice with PI3-kinase buffer (20 mM Tris-HCl, pH 7.5, 100 mM NaCl, 0.5 mM EDTA). The samples were untreated or treated with 0.3 mM 5,5'-Dithio-bis [2-nitrobenzoic acid] (Nbs2) for 15 minutes at 22° C. Excess reagent was removed by washing the complexes three times with PI3-kinase buffer and the immunoprecipitate was then incubated for 15 minutes at 22° C. with increasing concentrations of dithiothreitol (DTT). A control sample was incubated with DTT alone at a final concentration of 300 mM. The remaining DTT was removed by washing with lysis buffer and the immunoprecipitates were subjected to PI3-kinase assays or to in vitro protein kinase assays described below.
(§2) The experiment was carried out and the experimental results set forth in FIG. 17, A. In vitro PI3-kinase assays were performed on anti-p110 immunoprecipitates of these cells that had been treated as follows: untreated (see FIG. 17, A, lane 1 and 7); 300 mM DTT (lanes 2 and 8); treated with 0.3 mM Nbs2 (lanes 3 and 9); immunoprecipitates pretreated with 0.3 mM Nbs2 incubated with 3 mM DTT (lanes 4 and 10), 30 mM DTT (lanes 5 and 11); 300 mM DTT (lanes 6 and 12).

[3] = biological target: T3, PI3-kinase p110 subunit alone (wild type, recombinant, expressed in Sf9 cells) (Bos taurus, UniProt P32871); experiment: in vitro PI3-kinase assay on anti-p110 immunoprecipitates, p110 alone; type: biochemical, bovine
T3 construct: made in house; host or cells: Sf9 insect cells (baculovirus)
T3 sequence (P32871 whole entry): as the sequence (P32871 whole entry) above
Experimental: as §1, §2

[4] = biological target: p110 subunit of PI3-kinase (bovine, wild type, recombinant) (bovine) (UniProt P32871); experiment: GST fusion on glutathione-sepharose, p110 Sf9 lysate, bound PI3-kinase activity
[5] = biological target: p85α subunit of PI3-kinase (bovine, full length, recombinant) (bovine) (UniProt P23727)
[6] = biological target: p110 subunit of PI3-kinase (bovine, wild type, recombinant) (bovine, UniProt P32871); experiment: GST fusion on glutathione-sepharose, p110 Sf9 lysate, bound PI3-kinase activity
Experimental: GST fusion proteins of the various subdomains of p85α were constructed and immobilized on glutathione-sepharose beads, See FIG. 2, A. These proteins were used for affinity analysis with cell lysates prepared from Sf9 cells infected with a recombinant baculovirus expressing p110. The complexes were washed and subjected to PI3-kinase activity. GST alone, and GST p85α bound to glutathione-sepharose beads incubated with wild-type lysate were used as controls.

[7] = biological target: p85α subunit of PI3-kinase (bovine, full length, recombinant) (bovine, UniProt P23727); experiment: GST-p110 fusion pull-down from Sf9 lysate expressing p85α
[8] = biological target: p85β subunit of PI3-kinase (bovine, full length, recombinant) (bovine, UniProt P23726); experiment: GST-p110 fusion pull-down from Sf9 lysate expressing p85β

Molecule	binding result [7]	binding result [8]	further results
O[C@H](CS)[C@H](O)CS (racemic) [DTT, dithiothreitol]			activation of protein serine kinase activity [1]: slight activation; activation of PI3-kinase activity ([2]; DTT alone, final concentration 300 mM, FIG. 17 A lane 2): slight activation; activation of PI3-kinase activity ([3]; DTT alone, final concentration 300 mM, FIG. 17 A lane 8): slight activation
GST-85βΔ486-516 (from UniProt P23726)			percent of the PI3-kinase activity bound as compared to wild type GSTp85β [4]: 65%
GST-85βΔ445-469 (from UniProt P23726)			percent of the PI3-kinase activity bound as compared to wild type GSTp85β [4]: 65%
p110 subunit of PI3-kinase (bovine, wild type, recombinant) (from UniProt P32871) (enzyme)			stoichiometry of phosphorylation of p85α, in vitro protein kinase assay (mol of phosphate per mol of p85α) [5]: 0.9
O=C(O)c1cc(SSc2ccc([N+](=O)[O-])c(C(=O)O)c2)ccc1[N+](=O)[O-] [Nbs2, 5,5'-Dithio-bis [2-nitrobenzoic acid]]			inhibition at 300 µM ([2]; 0.25 h, 0.3 mM Nbs2, 15 minutes at 22° C, FIG. 17 A lane 3, read-out: loss of PI3-kinase activity): ~95%; inhibition at 300 µM ([3]; 0.25 h, 0.3 mM Nbs2, 15 minutes at 22° C, FIG. 17 A lane 9, read-out: loss of PI3-kinase activity): ~95%
GST fusion of the SH3 domain of p85α (amino acids 1-86) (other) MSAEGYQYRALYDYKKEREEDIDLHLGDILTVNKGSLVALGFSDGQEAKPEEIGWLNGYNETTGERGDFPGTYVEYIGRKKISPPT			binding result [6]: no binding
GST fusion of the BCR homology region of p85α (amino acids 125-322) (other) PDVAPPLLIKLVEAIEKKGLECSTLYRTQSSSNPAELRQLLDCDTASLDLEMFDVHVLADAFKRYLLDLPNPVIPVAVSSELISLAPEVQSSEEYIQLLKKLIRSPSIPHQYWLTLQYLLKHFFKLSQTSSKNLLNARVLSELFSPLLFRFPAASSENTEHLIKIIEILISTEWNERQPAPALPPKPPKPTTVANNGM			binding result [6]: no binding
GSTp85β(486-724) (other) IFEEQGQTQEKCSKEYLERFRREGNEKEMQRILLNSERLKSRIAEIHESRTKLEQELRAQASDNREIDKRMNSLKPDLMQLRKIRDQYLVWLTQKGARQKKINEWLGIKNETEDQYSLMEDEDDLPHHEERTWYVGKINRTQAEEMLSGKRDGTFLIRESSQRGCYACSVVVDGDTKHCVIYRTATGFGFAEPYNLYGSLKELVLHYQHASLVQHNDALTVTLAHPVRAPGPGPPPAAR			binding result [6]: no binding
GSTp85β(516-724) (other) RILLNSERLKSRIAEIHESRTKLEQELRAQASDNREIDKRMNSLKPDLMQLRKIRDQYLVWLTQKGARQKKINEWLGIKNETEDQYSLMEDEDDLPHHEERTWYVGKINRTQAEEMLSGKRDGTFLIRESSQRGCYACSVVVDGDTKHCVIYRTATGFGFAEPYNLYGSLKELVLHYQHASLVQHNDALTVTLAHPVRAPGPGPPPAAR			binding result [6]: no binding
GST-p110 fusion protein p110-3 (amino acids 577-1068) (other) RDEVAQMYCLVKDWPPIKPEQAMELLDCNYPDPMVRGFAVRCLEKYLTDDKLSQYLIQLVQVLKYEQYLDNLLVRFLLKKALTNQRIGHFFFWHLKSEMHNKTVSQRFGLLLESYCRACGMYLKHLNRQVEAMEKLINLTDILKQEKKDETQKVQMKFLVEQMRRPDFMDALQGFLSPLNPAHQLGNLRLEECRIMSSAKRPLWLNWENPDIMSELLFQNNEIIFKNGDDLRQDMLTLQIIRIMENIWQNQGLDLRMLPYGCLSIGDCVGLIEVVRNSHTIMQIQCKGGLKGALQFNSHTLHQWLKDKNKGEIYDAAIDLFTRSCAGYCVATFILGIGDRHNSNIMVKDDGQLFHIDFGHFLDHKKKKFGYKRERVPFVLTQDFLIVISKGAQECTKTREFERFQEMCYKAYLAIRQHANLFINLFSMMLGSGMPELQSFDDIAYIRKTLALDKTEQEALEYFMKQMNDAHHGGWTTKMDWIFHTIKQHALN	no binding	no binding	
GST-p110 fusion protein p110-4 (amino acids 601-960) (other) LLDCNYPDPMVRGFAVRCLEKYLTDDKLSQYLIQLVQVLKYEQYLDNLLVRFLLKKALTNQRIGHFFFWHLKSEMHNKTVSQRFGLLLESYCRACGMYLKHLNRQVEAMEKLINLTDILKQEKKDETQKVQMKFLVEQMRRPDFMDALQGFLSPLNPAHQLGNLRLEECRIMSSAKRPLWLNWENPDIMSELLFQNNEIIFKNGDDLRQDMLTLQIIRIMENIWQNQGLDLRMLPYGCLSIGDCVGLIEVVRNSHTIMQIQCKGGLKGALQFNSHTLHQWLKDKNKGEIYDAAIDLFTRSCAGYCVATFILGIGDRHNSNIMVKDDGQLFHIDFGHFLDHKKKKFGYKRERVPFVLTQDF	no binding	no binding	
GST-p110 fusion protein p110-5 (amino acids 760-960) (other) QLGNLRLEECRIMSSAKRPLWLNWENPDIMSELLFQNNEIIFKNGDDLRQDMLTLQIIRIMENIWQNQGLDLRMLPYGCLSIGDCVGLIEVVRNSHTIMQIQCKGGLKGALQFNSHTLHQWLKDKNKGEIYDAAIDLFTRSCAGYCVATFILGIGDRHNSNIMVKDDGQLFHIDFGHFLDHKKKKFGYKRERVPFVLTQDF	no binding	no binding	
GST-p110 fusion protein p110-6 (amino acids 760-1069) (other) QLGNLRLEECRIMSSAKRPLWLNWENPDIMSELLFQNNEIIFKNGDDLRQDMLTLQIIRIMENIWQNQGLDLRMLPYGCLSIGDCVGLIEVVRNSHTIMQIQCKGGLKGALQFNSHTLHQWLKDKNKGEIYDAAIDLFTRSCAGYCVATFILGIGDRHNSNIMVKDDGQLFHIDFGHFLDHKKKKFGYKRERVPFVLTQDFLIVISKGAQECTKTREFERFQEMCYKAYLAIRQHANLFINLFSMMLGSGMPELQSFDDIAYIRKTLALDKTEQEALEYFMKQMNDAHHGGWTTKMDWIFHTIKQHALN	no binding	no binding	
MPPRPSSGELWGIHLMPPRILVECLLPNGMIVTLECLREATLITIKHEL (other) [GST-p110 fusion protein p110-1.1 (amino acids 1-49)]	no binding	no binding	
GST-p110 fusion protein p110-1.2 (amino acids 1-81) (other) MPPRPSSGELWGIHLMPPRILVECLLPNGMIVTLECLREATLITIKHELFKEARKYPLHQLLQDESSYIFVSVTQEAEREE	no binding	no binding	
GST-p110 fusion protein p110-1.4 (amino acids 20-81) (other) ILVECLLPNGMIVTLECLREATLITIKHELFKEARKYPLHQLLQDESSYIFVSVTQEAEREE	no binding	no binding	
MPPRPSSGELWGIHLMPPRILVECLLPNGMIVTLE (other) [GST-p110 fusion protein p110-1.6 (amino acids 1-35)]	no binding	no binding	
GST-p110 fusion protein p110-1.7 (amino acids 37-128) (other) LREATLITIKHELFKEARKYPLHQLLQDESSYIFVSVTQEAEREEFFDETRRLCDLRLFQPFLKVIEPVGNREEKILNREIGFAIGMPVCEF	no binding	no binding	
